The target in experiment [1] is Death receptor 5 (human DR5), as used in SPR, Octet and ELISA (human) (UniProt O14763). Kind of experiment: SPR. In general terms: Surface plasmon resonance follows binding to a sensor surface in real time, without labels.
Experiment [2] has the same target. The experiment can be described thus: SPR. The source holds these as a separate data set.
Experiment [3] has as its target DR5 on Colo205 and H-EMC-SS cells (Homo sapiens) (UniProt O14763).
Experiment [4] shares this target. The experiment can be described thus: flow cytometry on cells.
Experiment [5] shares this target. Kind of experiment: flow cytometry on cells. This is another data set of the same source.

pEC50, pKd: −log10 of the molar value. Where “and” joins values, the source holds several entries; their conditions need not be identical. Equal entries are not always repeated. Where two headings read alike, the source gives them in different places. Where only a bound is given, the exact number is not on record here.

The values that follow come from publication PMC9398157.

As for IGM-8444 (antibody), the values for the pKd in experiment [1] and in experiment [2] were 7.07 and greater than 10.96, respectively. For the same substance, in experiment [3], the cytotoxicity on Colo205 cells, IC50 (CellTiter-Glo viability after 24 hours) was 1.1 ng/mL and 1.3 pmol/L. For the same substance, in experiment [3], the cytotoxicity on H-EMC-SS cells, IC50 (CellTiter-Glo viability after 24 hours) was 0.32 ng/mL and 0.37 pmol/L. Further, the negative logarithm of the EC50 (pEC50) was 10.14 in experiment [4] and 9.70 in experiment [5].

The term pKd denotes −log10 of the Kd, conventionally taken in molar units. A higher pKd goes with a low Kd. By pEC50 is commonly meant −log10 of the EC50, conventionally taken in molar units. Low values mean a high EC50, high ones a low EC50.
